From patent US20150344888A1 (published 2015) come the findings set out here.

Holding throughout (experiment): ubiquitin-AMC enzyme inhibition
One assay deals with T1, USP2 (UniProt O75604 259-605).
T1 chain: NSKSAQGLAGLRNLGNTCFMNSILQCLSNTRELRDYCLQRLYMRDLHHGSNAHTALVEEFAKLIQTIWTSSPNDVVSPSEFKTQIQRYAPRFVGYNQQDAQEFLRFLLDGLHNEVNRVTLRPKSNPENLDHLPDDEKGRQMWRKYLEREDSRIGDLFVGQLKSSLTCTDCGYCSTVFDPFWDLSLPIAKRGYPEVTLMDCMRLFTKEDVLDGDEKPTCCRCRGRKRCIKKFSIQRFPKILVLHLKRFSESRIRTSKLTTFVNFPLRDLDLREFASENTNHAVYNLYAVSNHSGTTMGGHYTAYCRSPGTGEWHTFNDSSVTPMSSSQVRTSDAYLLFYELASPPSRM

A further assay has as its target T2, UCHL3 (UniProt P15374 1-230).
T2 chain: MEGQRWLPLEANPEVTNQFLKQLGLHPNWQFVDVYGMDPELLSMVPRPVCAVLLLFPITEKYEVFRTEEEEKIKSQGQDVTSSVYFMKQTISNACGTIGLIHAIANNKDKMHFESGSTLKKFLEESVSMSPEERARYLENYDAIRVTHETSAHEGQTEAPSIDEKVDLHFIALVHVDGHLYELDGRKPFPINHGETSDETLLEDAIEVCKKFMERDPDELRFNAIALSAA

Another assay concerns the target T3, USP5 (UniProt P45974 1-858).
T3 chain: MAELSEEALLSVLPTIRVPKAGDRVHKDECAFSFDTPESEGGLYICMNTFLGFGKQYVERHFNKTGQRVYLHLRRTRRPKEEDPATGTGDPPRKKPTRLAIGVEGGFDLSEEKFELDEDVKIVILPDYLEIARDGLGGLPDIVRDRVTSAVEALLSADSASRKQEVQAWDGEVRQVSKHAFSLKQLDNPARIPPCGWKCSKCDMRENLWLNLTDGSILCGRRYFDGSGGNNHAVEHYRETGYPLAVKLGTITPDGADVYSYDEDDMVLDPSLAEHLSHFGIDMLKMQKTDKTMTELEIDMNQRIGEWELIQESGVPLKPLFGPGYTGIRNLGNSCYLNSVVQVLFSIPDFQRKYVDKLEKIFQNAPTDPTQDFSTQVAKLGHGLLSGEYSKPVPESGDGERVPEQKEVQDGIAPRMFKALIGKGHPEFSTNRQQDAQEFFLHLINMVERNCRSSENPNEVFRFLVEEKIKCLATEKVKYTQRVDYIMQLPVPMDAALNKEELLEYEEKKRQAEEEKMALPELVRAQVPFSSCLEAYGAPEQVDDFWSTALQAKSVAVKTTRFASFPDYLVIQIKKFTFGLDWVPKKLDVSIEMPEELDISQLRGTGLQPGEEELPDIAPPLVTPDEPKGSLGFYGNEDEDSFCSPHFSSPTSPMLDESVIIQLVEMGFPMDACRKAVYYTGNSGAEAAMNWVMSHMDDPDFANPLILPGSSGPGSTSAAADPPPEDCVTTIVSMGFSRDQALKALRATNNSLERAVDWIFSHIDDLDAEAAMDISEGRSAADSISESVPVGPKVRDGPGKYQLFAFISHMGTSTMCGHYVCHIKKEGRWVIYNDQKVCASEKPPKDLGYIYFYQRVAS

Assay [1] has as its target T4, USP30 (active enzyme in the ubiquitin-AMC assay) (UniProt Q70CQ3 57-517).
T4 chain: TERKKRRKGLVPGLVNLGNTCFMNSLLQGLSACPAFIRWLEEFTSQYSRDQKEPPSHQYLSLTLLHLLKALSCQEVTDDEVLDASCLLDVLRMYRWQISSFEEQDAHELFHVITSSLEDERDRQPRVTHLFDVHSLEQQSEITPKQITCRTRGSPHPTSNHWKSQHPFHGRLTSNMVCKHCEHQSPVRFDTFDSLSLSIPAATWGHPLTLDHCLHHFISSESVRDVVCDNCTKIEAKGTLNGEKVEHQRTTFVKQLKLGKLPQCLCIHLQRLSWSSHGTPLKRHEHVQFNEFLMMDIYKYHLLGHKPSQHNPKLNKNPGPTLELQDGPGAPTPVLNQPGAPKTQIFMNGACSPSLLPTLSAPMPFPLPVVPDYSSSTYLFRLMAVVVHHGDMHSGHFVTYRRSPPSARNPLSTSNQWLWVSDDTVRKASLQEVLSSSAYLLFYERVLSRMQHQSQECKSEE

A further assay addresses USP7.

B1: peptide USP30-8 (peptide)
peptide: VSRCYIFWNEMFCDVE
The term IC50 denotes the midpoint of a concentration-inhibition curve. A lower IC50 goes with greater potency. On to B1, for which the IC50 was around 200 µM with USP2, 194 µM with UCHL3, 42.9 µM in the assay with USP5 and 121 µM in assay [1].

B2: pep8 (peptide)
peptide: VSRCYIFWNEMFCDVE
Turning to B2, the IC50 with USP7 turned out to be 31.7 µM.
